Laboratory results as given in publication PMC2742380.
Several values for one entry are separate records, joined by “and”; a condition that tells them apart may be missing. Equal entries are not always repeated.

Assays:
[1] = target: His6-PA: WT PA with a carboxy-terminal six histidine tag, 63-kDa form (Bacillus anthracis); test: negative-stain electron microscopy
[2] = target: Protective antigen (PA), wild type, 63-kDa portion of trypsin-nicked PA (Bacillus anthracis); test: native MS
[3] = target: Protective antigen (PA), wild type, 63-kDa portion of trypsin-nicked PA (Bacillus anthracis); test: negative-stain electron microscopy

Protective antigen (PA), wild type, 63-kDa portion of trypsin-nicked PA (Bacillus anthracis), sequence (P13423 197-764 limits assumed): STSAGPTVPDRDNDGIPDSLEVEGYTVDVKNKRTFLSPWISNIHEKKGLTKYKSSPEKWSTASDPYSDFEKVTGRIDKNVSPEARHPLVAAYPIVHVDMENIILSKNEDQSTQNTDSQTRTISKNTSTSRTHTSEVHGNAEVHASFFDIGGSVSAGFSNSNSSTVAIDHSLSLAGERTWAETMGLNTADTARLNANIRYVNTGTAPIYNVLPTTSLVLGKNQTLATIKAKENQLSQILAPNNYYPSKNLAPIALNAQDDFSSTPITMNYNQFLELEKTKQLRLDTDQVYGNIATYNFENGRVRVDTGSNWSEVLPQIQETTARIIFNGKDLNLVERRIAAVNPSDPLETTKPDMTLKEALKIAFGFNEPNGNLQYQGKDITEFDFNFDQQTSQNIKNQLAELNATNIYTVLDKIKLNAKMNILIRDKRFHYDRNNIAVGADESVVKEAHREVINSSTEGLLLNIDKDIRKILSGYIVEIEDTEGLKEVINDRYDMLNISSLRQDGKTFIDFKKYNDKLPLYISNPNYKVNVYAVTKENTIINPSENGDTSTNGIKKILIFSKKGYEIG

His6-PA: WT PA with a carboxy-terminal six histidine tag, 63-kDa form (domain or fragment)
percent of oligomers that are heptamers [1]: 74% | percent of oligomers that are octamers [1]: 26%

LFN, amino-terminal domain of lethal factor (LF residues 1-263) (domain or fragment)
stoichiometry N (LFN per PA heptamer) [2]: 2 | stoichiometry N (LFN per PA tetramer) [2]: 2

Protective antigen (PA), wild type, 63-kDa portion of trypsin-nicked PA (domain or fragment)
stoichiometry N [3]: 7 and 8
